The domain aggregation screens of Martell et al. (2025)

Test: soluble fraction after stress (log2 fold change); higher = more stays soluble; pooled small domains, quantitative proteomics
Conditions: stress: 75 degC
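Further: 20 min heating vs room temperature control held 20 min.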

Row | Sequence | soluble fraction (log2)
1 | HMDRIISTPMPGRVVKIPVTEGEPVAKGATVITISAMKMESEYKSPIDGIVKKIHVSEGDNINANQPLIEI | -0.51
2 | HMDRKFFYEDQYQDYLGEELKVSFFDTDNKKTVRGTLSEVTPHGIKINLEQETQEIPFSSIIQANLI | 0.224
3 | HMDRPARDEAQSWLADVLADGPVPTAEIREEAEAAGLAWRTIQRARIALSVEPIRGDGRNAWLWQLPG | -1.49
4 | HMDRQIQITVAENEAGQRLDAFLAAKIPDMSRSYIQKLIEDGLILVNGQSTKGKVKTYSGMNIEVYMPE | -0.0484
5 | HMDRRDEYHQHLLRLLLSGEIRDKDELQRRKVKLSGEYGLAGVPKNSETLALVPPDRLPEVLDILR | -0.214
6 | HMDRSIGDIIAELRDLSAEQVERVLAHQRETGVRFGEAAVALGYASKEDVLFALSQQFHYPYAPEE | 0.0114
7 | HMDRSVTAAELRLAAMDLLARREHGSQELEAKLSRRFHKRHYDVELLRSVIEQLTVEGLLSDERFAVS | -0.951
8 | HMDRVTYPVSFNGKVRFQLELDAGMNAKEVETAALGHEKTAAQIEGKTIRKVIVVPGRIINIVV | -1.22
9 | HMDRWTPLVVAVLSRGSHRFGELRAAIGGITPKVLTDTLRSMERDGLITRDQAPGVPPRVDYALTPLGS | -1.43
10 | HMDSALKDDLNAFVKKLDVESQTLFMRRYFLGESVSSLASRFEMSEDNVGVKLFRIRAKLKKYLTGKGYD | -3.1
11 | HMDSAMMDLVMRVQLALFTKGYDVGIIDGKIGPKTRAQIKRYQSDNRLSSTGTLTTSLLTSLGIQ | -3.16
12 | HMDSATDRVALKELLNTLSARERTIITLRYFSDQTQTQVAKSLGISQVQVSRLENAILQRLRKL | -2.08
13 | HMDSDELEAFRLITSVNGVGPKLGIAILSEFTAEKLTVFIASGDAKALTAASGVGIKLAQRIVLELKDKVG | -0.351
14 | HMDSDFIKIEVLFNERNRLDLKAMMEASGFTDRGQFLSIMADLTGDENWDRNLDRGDIFYLPRSFTI | -1.28
15 | HMDSDIGQQLKILLTVGTFMPSTELKAIAQQFGMKKPTDLKEWVELESDTQRIKGNPTKGYWINEINDL | -0.682
16 | HMDSEEVYQMTKHKMDAAQISVAKRIHINLVLVKLLELHHLGYDLRHYHAQHHAFIKRLNLPEYFRFD | -1.67
17 | HMDSEKVLTNLKEELVLQLSNIEPYGYVPSQYWYSKVQRVQSVQELGKYVDGDLEAFVMKYAEDWESQK | -0.115
18 | HMDSGFMRTTQSYTVARLAEIFRLSGEDYLAVLREYDGWYQDLTSTKDLIRKGSDVPVPEGV | -1.67
19 | HMDSGLEQAKTAALENAELETSQVTFIKAELDYDDGKKVYEIEFVTSAMKYEYQVKADDFSILEMSKETIE | -0.755
20 | HMDSHSAESVRQRIKDMIAAEASKSILSDDTIVENLKSEGIEIARRTVAKYRESLNIPSSIQRRRIARSEA | -0.19
21 | HMDSILMPGVVNKELREALAILKNEGIGWADPEYASSTVTRNYVISTDPVEGIELAPGQKVRLVVSLGPKP | -0.326
22 | HMDSIQMKNNSILYYGNTAGYLDAKRNTAVVDPMFRTDEMESYLSEQKGLSVEWASGTYDRLT | 0.0501
23 | HMDSLEIEEPITVKSLSAASGLKISDIIRKLMQEGIMATANQVIDREQAEAVLIDYNVDLVVKR | -0.281
24 | HMDSLNWVEKIINTLPEQQRLIIQMRDIEQYEFAEIAKILEMNETAIRVALSRARKTIREFMIKTH | -2.07

Row | Sequence | soluble fraction (log2)
25 | HMDSLSLTELRIDSASPWIGNRISDFSPYAGELVIMIIRGEETIVPNGDTIILDKDLLVIYSS | -2.11
26 | HMDSNFNYELVGFRLDDMGLNSSVIVKRNNQEFVIQKGDLLENKYLLNSVTKKNINFSYLGKNYQI | -1.07
27 | HMDSNPLSEREQEVLQLVAKGASNQTIAEQLFLSNGTIRNYMTAIFNKLNANNRTDAVRIARENGW | -0.207
28 | HMDSPVEEWANRGLAYDPSLVTETMAKLYAKQGQIGLARKAFKRLALIYPEKSVYFAFQLKKLSNN | -2.01
29 | HMDSPVLTAEIKALIDKELEQNAVKLATGLKKQRKRATDIHDALIRQGHEVSYRTVVRYIRNKTAQTS | -0.751
30 | HMDSTSEILKVIQNIVKKEDPYHPLSDDKISNLLNDLDYQISRRTVAKYRDILTIPSSSKRRKL | -0.256
31 | HMDSVEMFSPILGMNANMDLDTLTQTRDKLLEKYKDDEQLIGLVNKTYDYFNEILLKQFLIEELEKNE | 0.0898
32 | HMDSVFGVVTSSDGVKLRKEASTISKVLTVLPYGTEVDVDRIGSEWIRIVTDGGQKGYVSADYLAVREGER | 0.682
33 | HMDSVPEEQLRQLALDKAKEVKRWGQPVELAKMNAHDRRIIHINLQDDPEIETRSEGEGALKSVIISLKK | 0.0979
34 | HMDSYADVLSDYRGKYKTNTISGLKGLRDKIREDMLAAADSLDFEKAALLRDEMNDLNKKIELKEKT | ≥ 1.04
35 | HMDTERLYAYAWQTHLKQFGLNISEEEIRQFVGVDDRIVHSFYAKTVPLDDFENTMFSLGEIIQQSL | -2.58
36 | HMDTFNVIARQEIDGILYEYKIMTVEDYKNQSPENLAVIYENIKAVMEQYDLSEDDADAILVDLLG | -1.14
37 | HMDTIRINSGSTVKEVAEYLGIPVPEVIKKLMSMGELATLTKTLSDDHIEVLAEEFEKKIKIVHVGEEAD | -0.458
38 | HMDTITDSYTLEKGKLRAKVMEYELPESKKKEYSATFEYRGVYYHMIGIIEKADFEEILKNLHFP | -0.168
39 | HMDTIVVAARSIQARQTLTESDLRVEEQEIGAASDKYYTDIAEAVGLVSSRRLSPGQPILRTM | -0.352
40 | HMDTLKDFISGVSIVFENKYSVGDNVTIGDFRGDVIELGMKTTKIRAYTGEVLIIPNHLVEKVINH | -1.56
41 | HMDTLRARQEAAYRFLSAIAGDWRNYEEANRALFAGDAARFQDLTESWPADVRDHARHLASAAFSS | -0.8
42 | HMDTNAIIGLRIKNLRTEKKYTLKYLSENTGLSIGFLSQLERGMTSIAIDSLDKISKVLDVELSSFFT | -1.69
43 | HMDTNELIDRYVNEVGQHLPRKTRADIEMELRSLLLDTLEEQSGGEPTPKMAAEVLREFGHPEEIAAQYH | -0.386
44 | HMDTRKKLEQIFKLFDKTGTGMVNIDEFKSVLKLFMEEIDEKFGNYFIAYFDENGDGKIEFEEFADVVL | -0.444
45 | HMDTSAHEVLSAIRSIIEDEDKRHPLSDEAITSRLSQQGYDIARRTVAKYRERLGLPVARLRRE | -0.26
46 | HMDVALEALDESDGAVRLQFSGALQTYLNDSTTAASLEAISKTFRAFYEAAGRPVDTLEVYAAGEPVT | 0.105
47 | HMDVDKQLDQLLAAMIPDKSLRQTIKTKAFNELVDNELADKDISSWTKQTMDVFMTRAEDMFGAM | -0.274
48 | HMDVEMLIDKYQLNDSEAEVLRFMKKNRQSLKTIGIRDVAKATYVSTATIINMAKKIGYSGYSELVFALGN | -1.69

Row | Sequence | soluble fraction (log2)
49 | HMDVNAQAGYDKLQSNQLDGARHDYEQALKTDPNNVDTLLALAAIAQRQGRSADADGYRQRAIDAD | -0.378
50 | HMDVNHVIIDHKGNSIQAIIDSIDLDNVYYQSKIKKESEVIDIDKVYFIFNDFDRVYHYDWSYYENL | -0.166
51 | HMDVNLSIRSGETIGIIGSTGSAKSTLVQLIPRLYDTTEGEVLVGGVNVKNYDLEALRNSVAMVLQKN | -0.112
52 | HMDVPNLVGEEIKDVRRTLRHFQLEVIGEGSKIVSQVPKHGQRLPENTTIRVYLN | -0.0339
53 | HMDVPNLVGKTLEEAENELKKLNIRYNVTERADEAPKDTVIEQSPKPYEAMEPGTVVNLVISSGPA | ≥ 1.04
54 | HMDVQPHIYLRKLDQFWPADLHSLILYTLDGRRLWSADSGNIPALPHRASSLVILEATWDNGQRTRRKQFL | -1.75
55 | HMDVRKSISDLKALGLSDAAVTVYGTIGNKPVHIDKIVSELGIPVFKVLTALTQLEMKGLVTAMQGRMYVL | -2.13
56 | HMDVSASEVGLTGRQTDVLSLMVKGRSNRDIAELLGLSEGTVKIHITAIFKALGVASRTQALVAAARLGLK | -0.82
57 | HMDVSLVEQTQRDILEYISKNNSNAQLPKEQEFVGLLGVSRVVVREALSRLRALGIIETKRKKGTVVVVPE | -1.09
58 | HMDWVAYGAELRRRRLLAGWSVAELSRRTNLSTSIIYQVEQARTRLRPSQLTLAKLAAALGMP | -3.1
59 | HMDYAQAQRQAESAIALRPDVERLRLLLIYALQKQGKLREAEQAAADAIKSGLDTPALRQARANLRP | -0.732
60 | HMDYGSISFINWSIEVLSVIKTRLDRGDKIIDEVSGEKYTASSFEKFVRKNFSSYIFSQVYAEDHKK | -2.73
61 | HMDYHTIQTGDKGDEVLRLQQALAEYGYYEGDLDGRFGQQTRRAVERFQYSHGLTADGIAGRNTLSVLYD | -0.181
62 | HMDYIITHYPDNKRFETQVDGVVAFVQYRLSGDKLDIIHTIVPPAIGGRGIAAALVKYAYDYAIENGMK | -2.13
63 | HMDYKSKLQELVQTEKRTVEYKLVDESGPAHNKSFTFEVVISGIKYGSGTGASKKIAEQNAAKEALEKLA | -0.277
64 | HMDYKSTLQELVQTVKKSVTYEVIDEEGPSHNKTFTSIVKIDGIVMGKGTAGSKKASEQEAARDALSKR | 0.42
65 | HMDYLYHNGKEIDQGSIMYKMEDYSDGIFELQSAKYADGTELDEKELEELESTQELIDWVMIDFVS | 0.675
66 | HMDYNSYGLTERELELVDYVLKGYSRKEMAEASGLKVNTIGSYMKKIYRKLNIHNRTELKERFI | -0.119
67 | HMDYNYLVFVTNTGPRSIAVEDLEMTVSDGKLVVSSGADGETFDLSTLTKMYFSDAAVVSINDV | -1.1
68 | HMDYQYILVDVKDRIATVTINRPEYSNAFARESYYEIADAMNTLGARDDVGVIVITGAGKHFSAGGDIKRF | -0.777
69 | HMDYYKILGLSTSATLDQIKKAFRQLAIEFHPDKNPNNPTAEDKFQRISEAYAVLSNPEKRAEYDRSY | -0.0123
70 | HMEAAETAVVTGTIVNIRSGPTLDFEAFAQVKQGDRLPVLDKFYNWYYVKLPSGVNGWISGQLVRIEQ | -2.86
